Data on three substances can be found in PMC8104961.

Test [1] addresses S. cerevisiae Ire1 kinase/RNase domains (WT Sc Ire1-KR) (S. cerevisiae). Nature of the test: AUC; sedimentation equilibrium, 20°C; 2.5, 5 and 10 μM protein at 7,000, 10,000 and 14,000 rpm; 50 mM Tris/HCl pH 7.5, 200 mM NaCl, 2 mM Mg(OAc)2, 2 mM TCEP; global fit to a self-association equilibrium model; monomer-dimer equilibrium constant.
Test [2] addresses Sc Ire1-KR(K992D,Y1059R) (S. cerevisiae). The experiment in a line: cross-linking; 12.5 μM Ire1-KR, 2 mM ADP, 1 mM BS3 (bissulfosuccinimidyl suberate), 2 h on ice; 50 mM HEPES, 200 mM NaCl, 2 mM Mg(OAc)2, 2 mM TCEP, 10% glycerol; SDS-PAGE, coomassie blue or SYPRO Ruby.
Test [3] has the same target. The experiment in a line: AUC; sedimentation equilibrium, 20°C; 2.5, 5 and 10 μM protein at 7,000, 10,000 and 14,000 rpm; 50 mM Tris/HCl pH 7.5, 200 mM NaCl, 2 mM Mg(OAc)2, 2 mM TCEP; global fit to a self-association equilibrium model; monomer-dimer equilibrium constant.
Test [4] has as its target Sc Ire1-KR(K992R,Y1059D) (S. cerevisiae). Nature of the test: cross-linking; 12.5 μM Ire1-KR, 2 mM ADP, 1 mM BS3 (bissulfosuccinimidyl suberate), 2 h on ice; 50 mM HEPES, 200 mM NaCl, 2 mM Mg(OAc)2, 2 mM TCEP, 10% glycerol; SDS-PAGE, coomassie blue or SYPRO Ruby.

Where “and” joins values, the source holds several entries; their conditions need not be identical. Identical values can stand only once.

The term Kd denotes the concentration at which binding is half-saturated. Turning to “S. cerevisiae Ire1 kinase/RNase domains (WT Sc Ire1-KR) (domain or fragment)”, the Kd in test [1] was 57 µM.

The stoichiometry N is a count of units in the complex or per binding partner. For “Sc Ire1-KR(K992D,Y1059R) (domain or fragment)”, the stoichiometry N in test [2] is 2 and 4. In test [3], this substance returned a Kd of 0.98 µM.

For the substance “Sc Ire1-KR(K992R,Y1059D) (domain or fragment)”, the stoichiometry N in test [4] turned out to be 2.
